Results: PMC3034312

Substrate: CC(C)=CCC/C(C)=C/CC/C(C)=C/CO[P@@](=O)(O)OP(=O)(O)O
Assay: steady-state kinetics, 30-min radiolabel incubations
Assay type: biochemical, Streptomyces clavuligerus
Conditions: labelled compound ([1-3H]-FPP, 0.25 to 7.5 μM)

Protein	Km [µM]	kcat
SSCG_02150; (−)-δ-cadinene synthase (Streptomyces clavuligerus) (protein) MSTRPVEGSAIWDVLSPHSPHAAAADGKTLVWVEAGELCGHDTAESANLARIRPGLLAAFCHPKATEDDLTLITKWMAWLFLLDDRIDESDLGRDADLLDGHLQDLQGVALGIRTASGPMSRALEEIITQASAGMGDAWQLRFRRNISDYLLACVWQAAHRQAGEFPDPEVFPHWRRAFGAIMPSFDLIERTDGGALPSCVYYSRPYQSLLTAAADLVCWTNDLMTVDKEAAHGDLHNLVLVTEHDRHQDRRTASAAVSAACEQRMRAHTSARRDLTGLTAALGLPDTVRTHADDCAASLLVWVRGHLEWGLETPRYRPGTTGTGTD	1.4 ± 0.1	1.14 ± 0.03 × 10^−3 s^−1
SSCG_03688; (+)-T-muurolol synthase (Streptomyces clavuligerus) (protein) MSLNHSDLMFYCPVDDLPHPAASGVNDRTLDWASGQGIPTADRDAGRLRAMAPGLLAARIAPDARGPVLDAFADHHTWLFAFDDEYCDRADGSGITEWASFLARLHRVVETGESALLPGNPYGLALRDIACRLSTYTTPAQLAEWLEALRSYFAALVWERSRRRDDDRLQSLDDYLLLRLRNGAMHTSITLLDTVNGYVLPRELRETPGVRALVEMTALLVSVDNDILSHHKESTSGTREANLLDVLGRTGHTTPGEAVAQAVALRNEIMRQFVRVAERVRTPAAVPELYRFTTGLARWIRANLDFSLTTTRYTGPVTERAALSPHEVPPLSGQGPAPARSDVIGWWWRIPEPLPEPGSDGADTPVRKRRAGDRPPTAGRGGAPHHQRTGPPPPVLPGGITASRSSGLQQSTWRREHR	2.7 ± 0.3	1.63 ± 0.09 × 10^−3 s^−1
